# Data from patent US20150118725A1 (GLOBAL BIOENERGIES, priority 2012, published 2015).
# Experiments:
# [1] = test system: Streptococcus mitis MDP decarboxylase (strain B6, SEQ ID NO: 10); assay: Phosphotransferase activity on mevalonate (pyruvate kinase/lactate dehydrogenase coupled ADP assay); format: biochemical; conditions: 40° C., pH 7.5, 5 mM ATP, 0 to 5 mM R,S-sodium mevalonate
# From the text: (§1) 1.5 U/ml Lactate dehydrogenase
# (§2) The pH was adjusted to 7.5.
# [2] = Complementation assay: Th. acidophilum MDP decarboxylase (mutant L200E) with each tested MDP decarboxylase, isoprenol by GC-FID; format: biochemical; conditions: 0.01 mg Th. acidophilum (L200E) enzyme + 0.5 mg tested enzyme in 0.1 ml, 200 mM mevalonate, 37° C., 24 h (FIG. 7)
# Experimental: MDP decarboxylases were evaluated using a complementation assay. Th. acidophilum MDP decarboxylase (mutant L200E) was incubated together with each tested enzyme from the library.
# The combined enzymatic assay was carried out under the following conditions:
# The pH was adjusted to 7.5
# 0.01 mg of the Th. acidophilum enzyme and 0.5 mg of the MDP decarboxylase to be tested were added to 0.1 ml of reaction mixture. Reaction mixture containing only […] of the Th. acidophilum MDP decarboxylase (L200E) was used as reference. The assays were incubated without shaking at 37° C. for 24 h in a sealed vial (Interchim). The isoprenol production was analyzed as follows. An aliquot of 50 μl of liquid phase was removed and mixed with 100 μl of ethyl acetate. 100 μl of the upper ethyl acetate phase was transferred to a clean vial for analysis by gas chromatography. Commercial isoprenol was used as reference. The samples were analyzed on a Varian GC-430 gas chromatograph equipped with a flame ionization detector (FID). […] The retention time of isoprenol in these conditions was 7.38 min.
# [3] = substrate: CC(O)(CCO)CC(=O)O; assay: purified protein, by the assay type; format: biochemical, Thermoplasma acidophilum; conditions: other: 40° C., pH 7.5, 5 mM ATP, 0 to 5 mM R,S-sodium mevalonate
# From the text: as §1, §2
# [4] = Phosphotransferase activity: ADP release in the pyruvate kinase/lactate dehydrogenase coupled assay; format: biochemical; conditions: 40° C., pH 7.5
# From the text: as §1, §2
# [5] = Combined enzymatic assay: Th. acidophilum (L200E) and S. mitis MDP decarboxylases, isoprenol by GC; format: biochemical; conditions: 0 to 0.4 mg S. mitis enzyme with 0.01 mg Th. acidophilum (L200E) in 0.1 ml, 37° C., 24 h (FIG. 10)
# Experimental: 0.01 mg of purified MDP decarboxylase from Th. acidophilum (mutant L200E) and 0.2 mg of purified MDP decarboxylase from S. mitis were added to 0.1 ml of reaction mixture. Control reactions were performed in which either no enzyme was added, or no ATP was added.
# To validate the combined action of two enzymes, a series of additional controls were carried out. In one assay, MDP decarboxylase from S. mitis (0.21 mg) was the only enzyme using as the catalyst. In the other experiment, 0.21 mg of the Th. acidophilum (L200E) enzyme was added, lacking S. mitis decarboxylase. The assays were incubated in a sealed vial (Interchim) without shaking for 24 hours at 37° C. Isoprenol extraction and analysis were performed according to the procedure described in Example 4.
# The effect of S. mitis MDP decarboxylase concentration was assessed under the following conditions:
# 0.01 mg of purified MDP decarboxylase from Th. acidophilum (mutant L200E) and a varying amount (from 0 to 0.4 mg) of purified MDP decarboxylase from S. mitis were added to 0.1 ml of reaction mixture. The mixtures were then incubated without shaking at 37° C. for 24 h in a sealed vial. Isoprenol extraction and analysis were performed according to the procedure described in Example 4.
molecule,measurement,setting,value
CC(O)(CCO)CC(=O)O (stereo not drawn) [mevalonate],Km,[1],200 µM
same,kcat,[1],0.002 s⁻¹
"S. cerevisiae MDP decarboxylase: MDP decarboxylase of Saccharomyces cerevisiae, SEQ ID NO: 22 (protein, listed as Saccharomyces cerevisiae) MTVYTASVTAPVNIATLKYWGKRDTKLNLPTNSSISVTLSQDDLRTLTSAATAPEFERDTLWLNGEPHSIDNERTQNCLRDLRQLRKEMESKDASLPTLSQWKLHIVSENNFPTAAGLASSAAGFAALVSAIAKLYQLPQSTSEISRIARKGSGSACRSLFGGYVAWEMGKAEDGHDSMAVQIADSSDWPQMKACVLVVSDIKKDVSSTQGMQLTVATSELFKERIEHVVPKRFEVMRKAIVEKDFATFAKETMMDSNSFHATCLDSFPPIFYMNDTSKRIISWCHTINQFYGETIVAYTFDAGPNAVLYYLAENESKLFAFIYKLFGSVPGWDKKFTTEQLEAFNHQFESSNFTARELDLELQKDVARVILTQVGSGPQETNESLIDAKTGLPKE",isoprenol production in combined assay,[2],highest production of isoprenol
Thermoplasma acidophilum MDP decarboxylase mutant L200E (SEQ ID NO: 16) (Thermoplasma acidophilum DSM 1728; L200E) (protein) MLHHHHHHTYRSIGSTAYPTIGVVLLGGIANPVTRTPLHTSAGIAYSDSCGSIRSETRIYADEATHIYFNGTESTDDNRSVRRVLDRYSSVFEEAFGTKTVSYSSQNFGILSGSSDAGAASIGAAILGLKPDLDPHDVENDLRAVSESAGRSLFGGLTITWSDGFHAYTEKILDPEAFSGYSIVAFAFDYQRNPSDVIHQNIVRSDEYPARKKHADEHAHMIKEYAKTNDIKGIFDLAQEDTEEYHSILRGVGVNVIRENMQKLISYLKLIRKDYWNAYIVTGGSNVYVAVESENADRLFSIENTFGSKKKMLRIVGGAWHRRPE,Km,[3],500 µM
same,kcat,[3],2.5 s⁻¹
same,kcat/Km,[3],5000 M⁻¹ s⁻¹
"Streptococcus mitis: MDP decarboxylase from Streptococcus mitis (strain B6), SEQ ID NO: 10 (protein, Streptococcus mitis (strain B6)) MDREPVTVRSYANIAIIKYWGKKKEKEMVPATSSISLTLENMYTETTLSSLPTDATADAFYINGQLQNEAEHVKMSKIIDRYRPDGDGFVRIDTQNSMPTAAGLSSSSSGLSALVKACNAYFKLGLNRSQLAQEAKFASGSSSRSFYGPLGAWDKDSGEIYPVETGLKLAMIMLVLEDKKKPISSRDGMKLCVETSTTFDDWVRQSEKDYQDMLVYLKANDFAKVGELTEKNALAMHATTKTASPAFSYLTDASYEAMDFVRQLREQGEACYFTMDAGPNVKVLCQEKDLEHLSEIFGQRYRLIVSKTKDLSQDGCC",phosphotransferase activity (ADP production in the presence of mevalonate),[4],reproducible increase in ADP production
same,effect of enzyme concentration on amount of produced isoprenol,[5],increase of the amount of produced isoprenol
same,isoprenol production in combined assay,[2],highest production of isoprenol
